Five molecules from US20250298032A1 (INSTITUTE FOR RESEARCH IN BIOMEDICINE, published 2025) can be followed below.

One assay deals with T1, CXCL16 N-loop peptide (human, biotin-Ahx at the N-terminus; amidated at the C-terminus).
T1 construct: Synthetic peptide, captured on Neutravidin-coated ELISA plates
T1 peptide: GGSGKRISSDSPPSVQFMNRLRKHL
Description: ELISA, biotinylated CXCL16 N-loop peptide on neutravidin plate, anti-human IgG-HRP, OD450 nm. As to the method: (§1) To evaluate the antibodies' binding to chemokine peptides, 96-well plates (ThermoFisher, 442404) were coated with 50 μl per well of a 2 μg/ml Neutravidin (Life Technologies, 31000) solution in PBS, overnight at room temperature. Plates were washed 4 times with washing buffer (PBS+0.05% Tween-20 [Sigma-Aldrich]) and incubated with 50 μl per well of a 50 nM biotinylated peptide solution in PBS for 1 h at room temperature. After washing 4 times with washing buffer, plates were incubated with 200 μl per well of blocking buffer (PBS+2% BSA+0.05% Tween-20) for 2 h at room temperature. Plates were then washed 4 times with washing buffer, and serial dilutions of monoclonal antibodies or plasma were added in PBS +0.05% Tween-20 and incubated for 1 h at room temperature. To screen for the presence of anti-chemokine IgGs, plasma samples were assayed (unless otherwise stated) at 1:50 starting dilution followed by 3 fourfold serial dilutions (1:200, 1:800, 1:3200). Monoclonal antibodies were tested at 5 μg/ml starting concentration followed by 11 threefold serial dilutions. Plates were subsequently washed 4 times with washing buffer and incubated with anti-human IgG secondary antibody conjugated to horseradish peroxidase (HRP) (GE Healthcare, NA933) at a 1:5000 dilution in PBS+0.05% Tween-20. Finally, after washing 4 times with washing buffer, plates were developed by the addition of 50 μl per well of the HRP substrate TMB (ThermoFisher, 34021) for 9 min. The developing reaction was stopped with 50 μl per well of a 1 M H₂SO₄ solution, and absorbance was measured at 450 nm with an ELISA microplate reader (BioTek) with Gen5 software. A positive control (broadly reactive plasma from donor CLM70) and a negative control (uninfected participant) samples were included in each experiment. The Area Under the Curve (AUC) was obtained from two independent experiments and plotted with GraphPad Prism.

The target in a further assay is T2, CXCL13 N-loop peptide (human, biotin-Ahx at the N-terminus; amidated at the C-terminus).
T2 construct: Synthetic peptide, captured on Neutravidin-coated ELISA plates
T2 peptide: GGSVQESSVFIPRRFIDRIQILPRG
Description: ELISA, biotinylated CXCL13 N-loop peptide on neutravidin plate, anti-human IgG-HRP, OD450 nm. As to the method:
as §1

For a further assay, the target named is T3, CCL20 N-loop peptide (human, biotin-Ahx at the N-terminus; amidated at the C-terminus).
T3 construct: Synthetic peptide, captured on Neutravidin-coated ELISA plates
T3 peptide: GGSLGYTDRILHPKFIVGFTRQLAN
Description: ELISA, biotinylated CCL20 N-loop peptide on neutravidin plate, anti-human IgG-HRP, OD450 nm. As to the method: as §1, with “Plates were subsequently washed 4 times with washing buffer and incubated with anti-human IgG secondary antibody conjugated to horseradish peroxidase (HRP) (GE Healthcare, NA933) at a 1:5000 dilution in PBS+0.05% Tween-20. Finally, after washing 4 times with washing buffer, plates were developed by the addition of 50 μl per well of the HRP substrate TMB (ThermoFisher, 34021) for 9 min.” left out, “A positive control (broadly reactive plasma from donor CLM70) and a negative control (uninfected participant) samples were included in each experiment. The Area Under the Curve (AUC) was obtained from two independent experiments and plotted with GraphPad Prism.” left out

B1: aCXCL16.002 (antibody, human IgG1, V domains shown)
VH: EVQLVESGGGLSQPGWSLRLSCAASGLTVTRNYMSWVRQAPGKGLEWVSTLWTDGQKFYADSVKGRFTVSRDSYTNTLNLEMSGLRAEDTAVYFCTRDKVVPVRITPDYHYYGMDVWGQGTTVTVSS
VL: DIQLTQSPSFLSASVGDRVTITCRASQGVRRYLAWYQQKPGKAPKFLIYGASSLHTGVPSRFSGGGSDTEFTLTISNLQTEDFATYYCQQLDTYPLTFGGGTKVEIK
notes: also called anti-CXCL16 N-loop antibody
Take B1: the binding result with CXCL16 N-loop peptide is on record as “binds”.

B2: aCXCL13.002 (antibody, V domains shown)
VH: EVQLVESGGGLVKPGGSLRLSCAASGFTFSSYSMNWVRQAPGKGLEWVSSISSSSSYIYYADSVKGRFTISRDNAKNSLYLQMNSLRAEDTAVYYCARDGIYDYAPVDYWGQGTLVTVSS
VL: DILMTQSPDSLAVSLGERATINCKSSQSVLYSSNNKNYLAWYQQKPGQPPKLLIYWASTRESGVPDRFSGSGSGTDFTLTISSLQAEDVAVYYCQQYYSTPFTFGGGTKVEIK
notes: also called anti-CXCL13 N-loop antibody
Consider B2, for which, in the assay with CXCL13 N-loop peptide, the binding result was “binds”.

B3: aCXCL13.001 (antibody, human IgG1, V domains shown)
VH: QVQLVESGGGLVKPGGSLRLSCAASGFMFSDYYMSWIRQAPGKGLEWISYIGNSDASTFYADSVKGRFAISRDNAKNLLFLQMNSLRAEDTAVYYCARDGYSHSRGYSYGRKDAFDIWGRGTMVTVSS
VL: EIVLTQSPATLSLSPGERATLSCRASQSVSSYLAWYQQKPGQAPRLLIYAASQRATGIPARFSGTGSGTDFTLTISSLEPEDSAVYYCQQRGNWPGTFGQGTKVEIK
notes: as for B2
On to B3, for which the binding result in the assay with CXCL13 N-loop peptide is “binds”.

B4: aCCL20.001 (antibody, V domains shown)
VH: QVQLVQSGAEVKKPGASVKISCKASGYTFTNHYMHWVRQAPGVGLEWMGIVNPSGGNTSYARNFQGRIIMTRDMSTRTIYMELGSLRSEDTAVYYCARDGSHYDDDGGYYGDAFDIWGQGTMVTVSS
VL: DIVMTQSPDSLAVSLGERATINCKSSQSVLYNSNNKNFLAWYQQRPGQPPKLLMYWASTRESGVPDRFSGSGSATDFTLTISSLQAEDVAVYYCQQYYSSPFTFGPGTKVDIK
notes: also called anti-CCL20 N-loop antibody
For B4, in the assay with CCL20 N-loop peptide, the “EC50 (read off the curve)” value is about 0.04 µg/mL.

B5: aCXCL16.003 (antibody, human IgG1, V domains shown)
VH: EVQLVQSGAEVKKPGESLKISCKGSGYSFTSYWIGWVRQMPGKGLEWMGIIYPGDSDTRYSPSFQGQVTISADKSISTAYLQWSSLKASDTAMYYCARLHGDLYYFDYWGQGTLVTVSS
VL: QSVLTQEASVSGTVGQKVTLSCTGNSNNVGSYAVGWYQQISHGAPKTVMFGNSLPSGIPDRFSGSKSGTTASLTISGLQPEDEADYYCSTWDYSLSAQVFGGGTKLTVL
notes: as for B1
Turning to B5, the “EC50 (read off the curve)” value with CXCL16 N-loop peptide is about 0.2 µg/mL.
